Data as given in US6890910B1, “Murd protein and gene of Pseudomonas aeruginosa” (Merck & Co., Inc., priority 1998, dated 2005).

T1: recombinant MurD from P. aeruginosa (Pseudomonas aeruginosa, UniProt Q9HVZ9)
T1 construct: 6x His (pET-15b vector-encoded) (N); made in house; host or cells: E. coli BL21 (DE3)/pLysS
T1 sequence (Q9HVZ9 whole entry, looked up): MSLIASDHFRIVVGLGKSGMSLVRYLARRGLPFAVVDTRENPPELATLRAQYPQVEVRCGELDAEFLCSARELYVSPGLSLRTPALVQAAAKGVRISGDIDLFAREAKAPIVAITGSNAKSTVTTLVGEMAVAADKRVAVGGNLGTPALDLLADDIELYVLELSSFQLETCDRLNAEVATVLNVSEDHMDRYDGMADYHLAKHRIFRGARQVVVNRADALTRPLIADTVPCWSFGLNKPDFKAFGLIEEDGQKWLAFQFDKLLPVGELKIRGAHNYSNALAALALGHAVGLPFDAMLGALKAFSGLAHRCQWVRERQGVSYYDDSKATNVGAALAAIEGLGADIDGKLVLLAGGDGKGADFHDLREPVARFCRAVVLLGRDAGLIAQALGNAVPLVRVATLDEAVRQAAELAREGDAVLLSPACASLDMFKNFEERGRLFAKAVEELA

B1: P. aeruginosa MurD: Recombinant UDP-N-acetylmuramyl-L-alanine:D-glutamate ligase of Pseudomonas aeruginosa, over-produced as His-tagged fusion protein in E. coli (protein, listed as Pseudomonas aeruginosa)
chain: T1 sequence (Q9HVZ9 whole entry, looked up)
modifications: His tag
notes: Recombinant UDP-N-acetylmuramyl-L-alanine:D-glutamate ligase of Pseudomonas aeruginosa, over-produced as His-tagged fusion protein in E. coli

Assays:
[1] = target: recombinant MurD from E. coli (Escherichia coli, UniProt P14900); conditions: 350 μM UDP-N-acetyl-muramyl-L-alanine
Chain of recombinant MurD from E. coli (P14900 whole entry): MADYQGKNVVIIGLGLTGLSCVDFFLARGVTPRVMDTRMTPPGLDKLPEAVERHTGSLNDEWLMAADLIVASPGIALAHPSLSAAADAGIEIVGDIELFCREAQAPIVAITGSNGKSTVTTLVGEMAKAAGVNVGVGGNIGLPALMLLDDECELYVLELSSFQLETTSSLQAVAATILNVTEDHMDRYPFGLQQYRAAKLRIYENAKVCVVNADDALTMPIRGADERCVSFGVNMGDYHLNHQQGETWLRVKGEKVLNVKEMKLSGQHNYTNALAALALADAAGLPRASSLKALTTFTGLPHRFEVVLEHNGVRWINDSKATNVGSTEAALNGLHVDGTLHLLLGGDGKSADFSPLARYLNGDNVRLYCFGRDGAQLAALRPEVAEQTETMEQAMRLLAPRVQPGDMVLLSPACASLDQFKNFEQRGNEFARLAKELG
Procedure: The ATP-dependent MurD activity was assayed by monitoring the formation of product ADP using the pyruvate kinase and lactate dehydrogenase coupled enzyme assay. The reaction was monitored spectrophotometrically.
Typically, the assay contained 100 mM BIS-TRIS-propane, pH 8.0, 200 μM NADH, 1 mM ATP, 20 mM PEP, 5 mM MgCl2, 1 mM DTT, 350 μM UDP-N-acetyl-muramyl-L-alanine, 1 mM D-glutamate, 33 units/ml of pyruvate kinase and 1660 units/ml of lactate dehydrogenase in a final volume of 200 or 400 μl. The mixture was incubated at 25° C. for 5 min and the reaction initiated by the addition of 1-10 μg of MurD.
Rates were calculated from the linear portions of the progress curves using the extinction coefficient for NADH, e=6220 cm^−1 M^−1. One unit of MurD activity is equal to 1 μmol of ADP formed per min at 25° C.

[2] = target: T1, recombinant MurD from P. aeruginosa; assay: ATP-dependent MurD activity, pyruvate kinase/lactate dehydrogenase coupled enzyme assay; assay type: biochemical; conditions: UDP-N-acetylmuramyl-L-ala 350 μM, D-glutamate 1 mM, ATP 1 mM, 200 μl at 25° C.
Excerpt: The reaction was monitored spectrophotometrically.

Molecule | substrate inhibition [1] | units ([2]; 0.0015 mg protein) | Specific activity [2]
CC(=O)N[C@H]1C(OP(=O)(O)OP(=O)(O)OC[C@H]2O[C@@H](n3ccc(=O)[nH]c3=O)[C@H](O)[C@@H]2O)O[C@H](CO)[C@@H](O)[C@@H]1O[C@H](C)C(=O)N[C@H](C)C(=O)O (stereo partly drawn) [UDP-N-acetyl-muramyl-L-alanine] | substrate inhibition of the E. coli MurD occurs |  | 
B1 |  | 0.0047 µmol/min | 3.12 (μmol/min)/mg
